Measured values from PMC6957492, “Assembly and substrate recognition of curli biogenesis system” (Nature Communications, 2020).
Entries after “also recorded” stand apart in the source; their conditions may differ.

Legend:
CsgG = experiment: Pulldown assay of CsgF variants/domains with CsgG as bait; assay type: binding, E. coli K12; details: CsgF variants with C-terminal MBP tag
Procedure: The procedure of CsgG purification was similar to that of the CsgFG complex. […] After incubation for 30 min, the mixture was loaded into a Strep-Tactin column (IBA). […] Individual CsgG and CsgF variants were purified as input by Strep-Tactin and Ni-NTA, respectively. The samples were analyzed by 15% SDS–PAGE and stained with Coomassie blue.
CsgFGBD-MBP mutant variants were purified as soluble protein by Ni-NTA. CsgG were purified as membrane protein by Strep-Tactin and substituted by amphipole A8-35. CsgFGBD-MBP mutant variants (36 μM) and CsgG nonamer (2 μM) were mixed together at 4 °C for 2 h and then incubated with equal volume of Strep-Tactin beads at 4 °C for 1 h.
Supplementary Figure 5. Interaction mode between CsgFN and CsgG. a, Interaction of CsgFN and CsgG. […] Two adjacent subunits of CsgG are shown in magenta and cyan, respectively. b, Hydrogen bonds and electrostatic interaction between CsgFN and CsgG. Hydrogen bonds are shown as red […]
aromatic residues in CsgG. d, The hydrophobic interaction between CsgFN and CsgG. e, Pulldown assay between the CsgF(C-terminal MBP tag) mutant variants and CsgG. […] Source data are provided as a Source Data file.
(1 picture or pasted object on this page, not shown here)

CsgB = experiment: Pulldown assay of CsgB by CsgF domains; assay type: binding, E. coli; details: CsgB C-terminal MBP tag, CsgF parts N-terminal MBP tag; western blot
Procedure: After incubation for 20 min, the mixture was loaded to a Strep-Tactin column (IBA). The beads were washed four times with a buffer having 25 mM Tris-HCl at pH 8.0, 150 mM NaCl, and eluted in a buffer having 25 mM Tris-HCl at pH 8.0, 150 mM NaCl, and 2.5 mM desthiobiotin. […] The samples were analyzed by 15% SDS–PAGE and detected by western blotting.

[1] = biological target: the molecule itself; experiment: cryo-EM structure; CsgFG complex co-expressed from the CsgEFG operon, purified in LDAO; single-particle cryo-EM, 3.8 Å without symmetry, 3.38 Å with C9 symmetry
[2] = tested on: curli cell association in E. coli K-12 strain BW25113; experiment: Congo red cell-association assay; assay type: cell-based, E. coli K-12 BW25113; details: CsgF variants, scraped YESCA plates after 48 h
Procedure: (§1) The E. coli K-12 strain BW25113 wild type (WT) and mutants were cultured overnight in LB at 37 °C. To induce curli production, 5 μl sample was spotted on YESCA plates (10 g/L casamino acids, 1 g/L yeast extract, and 20 g/L Bacto agar) supplemented with 100 μg/ml ampicillin and 90 μg/ml Congo red. The plates were incubated at 26 °C for 48 h. […] For overexpression assay in the ΔCsgE mutant strain, 3 μM IPTG was also supplemented in the YESCA plates.
For the Congo red cell-association assay, after growing in YESCA plates for 48 h, the cells were scraped from the plates and the scraped plates were observed. The remaining plates with curli cell association appeared white, while the remaining plates without curli cell association appeared red.

[3] = tested on: curli production in E. coli K-12 strain BW25113; experiment: Congo red secretion assay of CsgF, CsgA or CsgG variants; assay type: cell-based, E. coli K-12 BW25113
Procedure: as §1

[4] = biological target: T1, Wild-type CsgG (expressed alone) (E. coli K12, UniProt P0AEA2 16-277); experiment: ITC; MicroCal ITC200, 25 °C; nonameric CsgG in amphipole A8-35 in the cell (2 or 10 μM), CsgFN-MBP (200 μM), CsgAN6 peptide (1 mM) or PeptideN (60 µM) in the syringe; 10 mM HEPES pH 7.5, 50 mM NaCl; details: both partners purified
T1 construct: also called CsgG nonamer; nonameric CsgG
T1 sequence (looked up): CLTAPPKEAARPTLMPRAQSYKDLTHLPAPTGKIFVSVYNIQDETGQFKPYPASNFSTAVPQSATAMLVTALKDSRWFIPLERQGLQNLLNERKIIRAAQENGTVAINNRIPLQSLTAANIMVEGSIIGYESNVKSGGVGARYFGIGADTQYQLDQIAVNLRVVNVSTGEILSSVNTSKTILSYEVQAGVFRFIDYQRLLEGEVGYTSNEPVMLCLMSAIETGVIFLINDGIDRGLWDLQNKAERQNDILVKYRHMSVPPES

[5] = biological target: T2, Wild-type CsgG (expressed alone) (E. coli K12, UniProt P0AEA2 16-277); experiment: ITC
T2 chain: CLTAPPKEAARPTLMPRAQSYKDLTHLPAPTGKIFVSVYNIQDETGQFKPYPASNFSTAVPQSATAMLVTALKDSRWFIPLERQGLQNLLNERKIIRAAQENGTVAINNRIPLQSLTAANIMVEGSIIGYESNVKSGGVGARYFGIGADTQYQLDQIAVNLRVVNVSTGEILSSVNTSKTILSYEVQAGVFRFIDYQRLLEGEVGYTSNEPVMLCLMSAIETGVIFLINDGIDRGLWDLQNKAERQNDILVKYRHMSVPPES

Question: How did the “CsgF-CsgG interaction in pulldown” value (CsgG) turn out when “CsgFN: N-terminal domain of CsgF (CsgFN, residues 1–36)” was run?
Answer: Its value is “CsgG can pulldown both the full-length CsgF and CsgFN”.

Question: What about the “pulldown of CsgB” value (CsgB) of the same molecule?
Answer: Its value is “could not pulldown CsgB”.

B1: CsgF (from the CsgEFG operon) (natural protein, E. coli K12, UniProt P0AE98 20-138, looked up)
chain: GTMTFQFRNPNFGGNPNNGAFLLNSAQAQNSYKDPSYNDDFGIETPSALDNFTQAIQSQILGGLLSNINTGKPGRMVTNDYIVDIANRDGQLQLNVTDRKTGQTSTIQVSGLQNNSTDF
notes: also called CsgFN (residues 1-36) and CsgFC (residues 37-119) are its domains; source: E. coli BL21 (DE3), co-expressed from the CsgEFG operon, co-purified with CsgG (Strep-Tactin, SEC)
Question: B1 was tested. Which “stoichiometry N” value [1] did it give?
Answer: Its value is 9 subunits.

B2: N11A (protein)
chain: GTMTFQFRNPAFGGNPNNGAFLLNSAQAQNSYKDPSYNDDFGIETPSALDNFTQAIQSQILGGLLSNINTGKPGRMVTNDYIVDIANRDGQLQLNVTDRKTGQTSTIQVSGLQNNSTDF
modifications: left off: MBP, end not stated, kept | His tag (from the Ni-NTA purification), end not stated, state not stated
Question: Which “CsgF-CsgG interaction in pulldown” value (CsgG) does the source give for B2 here?
Answer: Its value is “did not show any detectable influence on CsgF-CsgG interaction”.

B3: F12D (protein)
chain: GTMTFQFRNPNDGGNPNNGAFLLNSAQAQNSYKDPSYNDDFGIETPSALDNFTQAIQSQILGGLLSNINTGKPGRMVTNDYIVDIANRDGQLQLNVTDRKTGQTSTIQVSGLQNNSTDF
modifications: left off: MBP, end not stated, kept | His tag (from the Ni-NTA purification), end not stated, state not stated
Question: What does the source list for B3?
Answer: Congo red cell-association phenotype [2]: nearly eliminated; CsgF-CsgG interaction in pulldown (CsgG): abolished the interaction between CsgF and CsgG

B4: L23D (protein)
chain: GTMTFQFRNPNFGGNPNNGAFLDNSAQAQNSYKDPSYNDDFGIETPSALDNFTQAIQSQILGGLLSNINTGKPGRMVTNDYIVDIANRDGQLQLNVTDRKTGQTSTIQVSGLQNNSTDF
modifications: left off: MBP, end not stated, kept | His tag (from the Ni-NTA purification), end not stated, state not stated
Question: For B4, which “CsgF-CsgG interaction in pulldown” value (CsgG) is on record?
Answer: The value was “showed reduced interaction between CsgF and CsgG”.

B5: R8A (protein)
chain: GTMTFQFANPNFGGNPNNGAFLLNSAQAQNSYKDPSYNDDFGIETPSALDNFTQAIQSQILGGLLSNINTGKPGRMVTNDYIVDIANRDGQLQLNVTDRKTGQTSTIQVSGLQNNSTDF
modifications: left off: MBP, end not stated, kept | His tag (from the Ni-NTA purification), end not stated, state not stated
Question: For B5, which “CsgF-CsgG interaction in pulldown” value (CsgG) is on record?
Answer: Its value is “showed reduced interaction between CsgF and CsgG”.

B6: L22D (protein)
chain: GTMTFQFRNPNFGGNPNNGAFDLNSAQAQNSYKDPSYNDDFGIETPSALDNFTQAIQSQILGGLLSNINTGKPGRMVTNDYIVDIANRDGQLQLNVTDRKTGQTSTIQVSGLQNNSTDF
modifications: left off: MBP, end not stated, kept | His tag (from the Ni-NTA purification), end not stated, state not stated
Question: B6 was tested. Which “CsgF-CsgG interaction in pulldown” value (CsgG) did it give?
Answer: Its value is “showed reduced interaction between CsgF and CsgG”.

B7: F21D (protein)
chain: GTMTFQFRNPNFGGNPNNGADLLNSAQAQNSYKDPSYNDDFGIETPSALDNFTQAIQSQILGGLLSNINTGKPGRMVTNDYIVDIANRDGQLQLNVTDRKTGQTSTIQVSGLQNNSTDF
modifications: left off: MBP, end not stated, kept | His tag (from the Ni-NTA purification), end not stated, state not stated
Question: With B7 as the molecule, how does the “CsgF-CsgG interaction in pulldown” value (CsgG) read?
Answer: Its value is “did not show any detectable influence on CsgF-CsgG interaction”.

B8: N9A (protein)
chain: GTMTFQFRAPNFGGNPNNGAFLLNSAQAQNSYKDPSYNDDFGIETPSALDNFTQAIQSQILGGLLSNINTGKPGRMVTNDYIVDIANRDGQLQLNVTDRKTGQTSTIQVSGLQNNSTDF
modifications: left off: MBP, end not stated, kept | His tag (from the Ni-NTA purification), end not stated, state not stated
Question: How did the “CsgF-CsgG interaction in pulldown” value (CsgG) turn out when B8 was run?
Answer: Its value is “showed reduced interaction between CsgF and CsgG”.

B9: CsgFN17R: N17R-mutated CsgF (protein, UniProt P0AE98 20-138, looked up, variant N17R)
Curli production …: GTMTFQFRNPNFGGNPRNGAFLLNSAQAQNSYKDPSYNDDFGIETPSALDNFTQAIQSQILGGLLSNINTGKPGRMVTNDYIVDIANRDGQLQLNVTDRKTGQTSTIQVSGLQNNSTDF
Question: B9 was tested. Which “Congo red secretion phenotype (curli formation)” value ([3]; CsgF variants in ∆CsgF strain, YESCA/Congo red plates, 26 °C, 48 h) did it give?
Answer: The value was “loss of the Congo red phenotype”.

Question: And the “Congo red secretion phenotype” value ([3]; N17R-mutated CsgF expressed in wild type (WT) strain)?
Answer: Its value is “largely reduced Congo red phenotype”.

B10: F7D (protein)
chain: GTMTFQDRNPNFGGNPNNGAFLLNSAQAQNSYKDPSYNDDFGIETPSALDNFTQAIQSQILGGLLSNINTGKPGRMVTNDYIVDIANRDGQLQLNVTDRKTGQTSTIQVSGLQNNSTDF
modifications: left off: MBP, end not stated, kept | His tag (from the Ni-NTA purification), end not stated, state not stated
Question: With B10 as the molecule, how does the “Congo red cell-association phenotype” value [2] read?
Answer: The value was “nearly eliminated”.

Question: And the “CsgF-CsgG interaction in pulldown” value (CsgG)?
Answer: The value was “abolished the interaction between CsgF and CsgG; also recorded: didn’t see binding”.

B11: F5D (protein)
chain: GTMTDQFRNPNFGGNPNNGAFLLNSAQAQNSYKDPSYNDDFGIETPSALDNFTQAIQSQILGGLLSNINTGKPGRMVTNDYIVDIANRDGQLQLNVTDRKTGQTSTIQVSGLQNNSTDF
modifications: left off: MBP, end not stated, kept | His tag (from the Ni-NTA purification), end not stated, state not stated
Question: B11 was tested. Which “Congo red cell-association phenotype” value [2] did it give?
Answer: Its value is “nearly eliminated”.

Question: And the “CsgF-CsgG interaction in pulldown” value (CsgG)?
Answer: The value was “abolished the interaction between CsgF and CsgG”.

Question: Which results are given for GTMTFQFRNPNFGGNPR (source: synthetic peptide) [PeptideN_(N17R)]?
Answer: binding result [4]: binds; Kd [5]: 14.1 nM

B12: CsgFC: CsgF C-terminal domain (residues 37–119) (protein)
chain: YNDDFGIETPSALDNFTQAIQSQILGGLLSNINTGKPGRMVTNDYIVDIANRDGQLQLNVTDRKTGQTSTIQVSGLQNNSTDF
modifications: left off: MBP, C-terminal, kept | His tag (from the Ni-NTA purification of the input), end not stated, state not stated
Question: Which results are given for B12?
Answer: CsgF-CsgG interaction in pulldown (CsgG): unlikely to interact with CsgG; pulldown of CsgB (CsgB): full-length CsgF and CsgFC could

B13: CsgG (from the CsgEFG operon construct with C-terminal strep-tag II) (natural protein, E. coli K12, UniProt P0AEA2 16-277, looked up)
chain: CLTAPPKEAARPTLMPRAQSYKDLTHLPAPTGKIFVSVYNIQDETGQFKPYPASNFSTAVPQSATAMLVTALKDSRWFIPLERQGLQNLLNERKIIRAAQENGTVAINNRIPLQSLTAANIMVEGSIIGYESNVKSGGVGARYFGIGADTQYQLDQIAVNLRVVNVSTGEILSSVNTSKTILSYEVQAGVFRFIDYQRLLEGEVGYTSNEPVMLCLMSAIETGVIFLINDGIDRGLWDLQNKAERQNDILVKYRHMSVPPES
notes: also called CsgG channel; CsgG subcomplex; source: E. coli BL21 (DE3), co-expressed from the CsgEFG operon; membrane fraction solubilised in DDM/LDAO, purified (Strep-Tactin, SEC); not shown: strep-tag II, C-terminal, kept
Question: How did the “stoichiometry N” value [1] turn out when B13 was run?
Answer: The value was 9 subunits.

Question: With GVVPQY [CsgAN6 peptide] as the molecule, how does the Kd [4] read?
Answer: The Kd was 23.8 µM.
